Measured values taken from PMC10180154.

Columns and labels:
[1] = molecular target: T1, LRP6 (recombinant human LRP-6, Fc chimera) (Homo sapiens) (UniProt O75581); assay: CE-LIF (NECEEM); settings: CE-LIF: incubation pH 8.0, 0.155% glutathione, 0.395% Tris-HCl; running buffer 50 mM borate pH 7.6, 20 kV, 25 C (CE-SELEX conditions). SPR: PBST pH 7.4, 0.05% …
T1 sequence: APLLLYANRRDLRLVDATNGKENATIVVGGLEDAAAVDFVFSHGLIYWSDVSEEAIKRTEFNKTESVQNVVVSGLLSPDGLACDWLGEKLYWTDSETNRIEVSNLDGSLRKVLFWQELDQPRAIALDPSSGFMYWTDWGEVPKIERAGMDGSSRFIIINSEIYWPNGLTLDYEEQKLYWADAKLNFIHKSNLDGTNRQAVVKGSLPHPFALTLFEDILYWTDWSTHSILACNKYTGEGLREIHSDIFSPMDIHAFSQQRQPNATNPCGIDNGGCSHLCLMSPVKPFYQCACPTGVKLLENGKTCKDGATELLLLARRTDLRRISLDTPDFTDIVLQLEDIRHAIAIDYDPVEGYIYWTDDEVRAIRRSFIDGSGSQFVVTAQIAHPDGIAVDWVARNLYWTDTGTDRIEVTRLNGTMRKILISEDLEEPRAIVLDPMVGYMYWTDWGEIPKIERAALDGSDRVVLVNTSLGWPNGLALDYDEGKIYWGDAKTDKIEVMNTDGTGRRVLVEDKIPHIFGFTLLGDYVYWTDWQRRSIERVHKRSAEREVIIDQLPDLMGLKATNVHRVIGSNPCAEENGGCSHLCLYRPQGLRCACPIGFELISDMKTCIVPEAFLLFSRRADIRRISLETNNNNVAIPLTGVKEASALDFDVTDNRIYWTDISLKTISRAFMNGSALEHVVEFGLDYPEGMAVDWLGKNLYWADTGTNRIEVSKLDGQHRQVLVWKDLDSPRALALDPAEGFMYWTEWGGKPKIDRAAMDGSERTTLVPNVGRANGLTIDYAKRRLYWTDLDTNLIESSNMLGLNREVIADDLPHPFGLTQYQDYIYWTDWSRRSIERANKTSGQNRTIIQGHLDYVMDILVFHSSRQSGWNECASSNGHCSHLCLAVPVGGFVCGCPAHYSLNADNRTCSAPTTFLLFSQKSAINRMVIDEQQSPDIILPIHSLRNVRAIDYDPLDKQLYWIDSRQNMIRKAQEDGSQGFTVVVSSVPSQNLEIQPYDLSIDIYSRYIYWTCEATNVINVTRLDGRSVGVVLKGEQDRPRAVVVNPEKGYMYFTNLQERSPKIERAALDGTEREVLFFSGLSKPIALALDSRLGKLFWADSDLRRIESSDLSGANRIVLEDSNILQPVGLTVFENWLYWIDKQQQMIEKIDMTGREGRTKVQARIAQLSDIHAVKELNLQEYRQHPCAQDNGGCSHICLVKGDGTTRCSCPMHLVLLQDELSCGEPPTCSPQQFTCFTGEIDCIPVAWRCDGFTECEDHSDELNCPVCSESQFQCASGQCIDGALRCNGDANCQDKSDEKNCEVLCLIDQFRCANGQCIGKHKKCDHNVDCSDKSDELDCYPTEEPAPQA

[2] = molecular target: T1, LRP6 (recombinant human LRP-6, Fc chimera) (Homo sapiens); assay: SPR; settings: CE-LIF: incubation pH 8.0, 0.155% glutathione, 0.395% Tris-HCl; running buffer 50 mM borate pH 7.6, 20 kV, 25 C (CE-SELEX conditions). SPR: PBST pH 7.4, 0.05% …

Sequence: AGCAGCACAGAGGTCAGATGCGACTTGCCTATCGGCATGACACAATCTTTTGGAGCGTAACCTATGCGTGCTACCGTGAA [AptLRP6-A4]
- Kd [1]: 661 nM
- Kd [2]: 51 nM

Sequence: AGCAGCACAGAGGTCAGATGCCGCAGGCAGCTGCCATTAGTCTCTATCCGTGACGGTATGCCTATGCGTGCTACCGTGAA [AptLRP6-A1]
- Kd [1]: 118 nM
- Kd [2]: 13.4 nM

Sequence: AGCAGCACAGAGGTCAGATGGCAGCTAAGCAGGCGGCTCACAAAACCATTCGCATGCGGCCCTATGCGTGCTACCGTGAA [AptLRP6-A3]
- Kd [1]: 105 nM
- Kd [2]: 25.7 nM

Sequence: AGCAGCACAGAGGTCAGATGGCCACATTAGTCTCACCACTACCTGCGTACCTACCGCCGCCCTATGCGTGCTACCGTGAA [AptLRP6-A2]
- Kd [1]: 1280 nM
- Kd [2]: 173 nM
